Sequences and labels used below:
T1: full-length wild-type CHIP (Homo sapiens, UniProt Q9UNE7)
T1 construct: Recombinant CHIP-TPR (residues 21-154) and full-length CHIP proteins were expressed and purified as described; HIS; made in house
T1 sequence (Q9UNE7 1-303): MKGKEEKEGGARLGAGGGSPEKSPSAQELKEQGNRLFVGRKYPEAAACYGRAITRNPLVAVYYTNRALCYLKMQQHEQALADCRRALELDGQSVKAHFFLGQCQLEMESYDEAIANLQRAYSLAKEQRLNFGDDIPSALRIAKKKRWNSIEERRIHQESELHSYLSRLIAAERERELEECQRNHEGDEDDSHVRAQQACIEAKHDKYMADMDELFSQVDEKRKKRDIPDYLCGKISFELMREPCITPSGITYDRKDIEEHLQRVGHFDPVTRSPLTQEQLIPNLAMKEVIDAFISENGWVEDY

T2: full-length CHIP-G132N (Homo sapiens, UniProt Q9UNE7, G132N)
T2 construct: HIS; made in house
T2 sequence (Q9UNE7 1-303 G132N): T1 sequence (Q9UNE7 1-303) with G132N

T3: CHIP TPR (fluorescence polarization construct) (human)
T3 chain: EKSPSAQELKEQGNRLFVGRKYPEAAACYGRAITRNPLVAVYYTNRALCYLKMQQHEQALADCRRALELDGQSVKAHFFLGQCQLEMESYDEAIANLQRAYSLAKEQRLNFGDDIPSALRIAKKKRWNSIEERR

T4: full-length CHIP (wild-type) (human, UniProt Q9UNE7 1-303)
T4 construct: CHIP (STUB1), full length, wild-type; Vector CHIP of the JCS lab; also called CHIP-WT; STUB1
T4 sequence (looked up): T1 sequence (Q9UNE7 1-303)

T5: human CHIP-TPR (residues 21-154) (human, UniProt Q9UNE7 21-154)
T5 construct: also called wild-type CHIP-TPR
T5 sequence (looked up): T3 chain

T6: G132N CHIP-TPR (human, UniProt Q9UNE7 21-154, G132N)
T6 construct: CHIP (STUB1), human, TPR domain with G132N; also called G132N variant
T6 sequence (looked up): T3 chain with G112N

B1: FITC-Ahx-GSGPTIEEVD (peptide)
peptide: {FITC-Ahx}-GSGPTIEEVD
notes: C-terminal tail of human HSP70 (HSPA1A); also called EEVD (fluorescence polarization tracer); unphosphorylated EEVD peptide; source: synthetic peptide (Lifetein/Genscript)
B2: biotin-GSGSGP(pT)IEEVD (peptide)
peptide: Biotin-GSGSGP[pT]IEEVD
notes: C-terminal tail of human HSP70 (HSPA1A), Thr636 phosphorylated; also called biotin-pEEVD; biotinylated pEEVD peptide; source: synthetic peptide (Lifetein/Genscript)
B3: biotin-GSGSGPTIEEVD (peptide)
peptide: Biotin-GSGSGPTIEEVD
notes: C-terminal tail of human HSP70 (HSPA1A); also called biotin-EEVD; biotinylated EEVD peptide; source: synthetic peptide (Lifetein/Genscript)
B4: G132N: structure-guided G132N substitution variant of CHIP (protein)
chain: T1 sequence (Q9UNE7 1-303) with G132N
modifications: left off: HIS, end not stated, state not stated
notes: structure-guided G132N substitution variant of CHIP
B5: CHIP TPR (fluorescence polarization construct) (domain or fragment)
chain: T3 chain
B6: CHIP TPR-CC (domain or fragment)
chain: MKGKEEKEGGARLGAGGGSPEKSPSAQELKEQGNRLFVGRKYPEAAACYGRAITRNPLVAVYYTNRALCYLKMQQHEQALADCRRALELDGQSVKAHFFLGQCQLEMESYDEAIANLQRAYSLAKEQRLNFGDDIPSALRIAKKKRWNSIEERRIHQESELHSYLSRLIAAERERELEECQRNHEGDEDDSHVRAQQACIEAKHDKYMADMDELFSQVDEKRKKR

Positions count from the first letter of the chain named. Names and notes keep the numbering of the source. Square brackets hold non-standard residues; d marks the D form. Ends that are not written are not given here. Peptide text beside a SMILES is read from it. * marks the point of attachment. FITC = O=C1OC2(c3ccc(O)cc3Oc3cc(O)ccc32)c2ccc(NC(=S)*)cc21; Biotin = O=C1N[C@H]2[C@H](CS[C@H]2CCCCC(=O)*)N1; pT = C[C@@H](OP(=O)(O)O)[C@H](N)C(=O)O; Ahx = NCCCCCC(=O)O

Series [1] has as its target T1, full-length wild-type CHIP. In words: Fluorescence polarization, full-length wild-type CHIP with HSP70 C-terminal peptide. Particulars: Fig. 4c binding curve, value in picture; FITC-Ahx-labelled peptide 20 nM, room temperature, 30 min; n = 3 independent experiments. The source says: (§1) Plasmids were propagated in DH5α Escherichia coli and purified using Qiagen Miniprep or Bio-Rad Midiprep kits. Mutations were introduced with Q5 (NEB) or QuikChange II XL (Agilent) kits and verified by Sanger sequencing. Peptides (Lifetein/Genscript) included unphosphorylated […] (EEVD), phosphorylated GP(pT)IEEVD (pEEVD), biotin-[…] (biotin-EEVD), biotin-GSGSGP(pT)IEEVD (biotin-pEEVD), and FITC-Ahx-[…] or FITC-Ahx-GSGP(pT)IEEVD for polarization assays. Recombinant CHIP-TPR (residues 21-154) and full-length CHIP proteins were expressed and purified as described.[8], [29]
(§2) The N-terminally labeled peptides were loaded into PCR reaction tubes at 2X (40 nM), resulting in a final concentration of 20 nM. Recombinant CHIP constructs were added to the tubes at the indicated concentrations. The reaction was left at room temperature for 30 min before loading into black, low-volume, round-bottom 384-well plates (Greiner Bio-One) with inter-run triplicates at 18 μl each and subsequently repeated independently 2 more times. […] The polarization readings were normalized to the dilution buffer. Gain adjustment was made to the tracer HSP70 peptides alone.

The target of a further series is T2, full-length CHIP-G132N. In words: Fluorescence polarization, full-length CHIP-G132N. The following applies: Fig. 4d binding curve, value in picture; FITC-Ahx-labelled peptide 20 nM, room temperature, 30 min; n = 3 independent experiments.
Text: as §1, §2
(Fluorescence polarisation rises when a labelled molecule tumbles more slowly, as on binding a larger partner.)

The subject of a further series is proteasome. Put plainly: Proteasome-dependent turnover of HSP70 T636 variants. In kind it is cell-based. Particulars: relative to WT and T636A, Figure S3.
A further series concerns the target CHIP (UniProt Q9UNE7). Put plainly: fluorescence polarization titration. Particulars: reference: unphosphorylated EEVD peptide; sites T636.
Series [2] has as its target T3, CHIP TPR (fluorescence polarization …). Put plainly: FP.
In series [3] the target is T4, full-length CHIP (wild-type). Put plainly: fluorescence polarisation; FITC-labelled peptide at 20 nM, recombinant CHIP constructs added at varied concentrations, 30 min at room temperature; one-site total binding fit, normalised to % of maximum binding. Particulars: both partners purified.
Series [4] deals with T5, human CHIP-TPR (residues 21-154). Put plainly: BLI; BLItz, biotinylated peptide loaded on streptavidin sensors, TPR construct at 1 to 25 uM in solution; 20 mM HEPES, 150 mM NaCl, 5 mM beta-mercaptoethanol, pH 7.2; Kd = koff/kon from individual fits. The following applies: both partners purified. Background: In BLI a coated tip is dipped into the sample, and binding shifts an interference pattern.

Another series concerns the target T6, G132N CHIP-TPR. Described as above. The following applies: both partners purified.
In series [5] the test system is HSP70. In words: In vitro HSP70 ubiquitination. In kind it is biochemical. The following applies: Figure S2.
Series [6] relates to HSP70. Put plainly: Co-immunoprecipitation, steady-state HSP70-CHIP interaction. Particulars: phosphomimetic HSP70, Figure S1. In kind it is cell-based.
For series [7], the system named is HSP70. In words: NanoBiT, transient cellular HSP70-CHIP interaction. In kind it is cell-based. Particulars: Figure S1.
The series “FITC-Ahx-GSGPTIEEVD” addresses B1. Put plainly: fluorescence polarisation; FITC-labelled peptide at 20 nM, recombinant CHIP constructs added at varied concentrations, 30 min at room temperature; one-site total binding fit, normalised to % of maximum binding. The following applies: both partners purified.

With `CC[C@H](C)[C@H](NC(=O)[C@@H](NC(=O)[C@@H]1CCCN1C(=O)CN)[C@@H](C)OP(=O)(O)O)C(=O)N[C@@H](CCC(=O)O)C(=O)N[C@@H](CCC(=O)O)C(=O)N[C@H](C(=O)N[C@@H](CC(=O)O)C(=O)O)C(C)C` [pEEVD, GP(pT)IEEVD] (H-GP[pT]IEEVD-OH), the Kd (in general, the equilibrium constant for the complex coming apart) in [1] turned out to be 46 nM; at full-length CHIP-G132N, 96 nM.

Consider `CC[C@H](C)[C@H](NC(=O)[C@@H](NC(=O)[C@@H]1CCCN1C(=O)CN)[C@@H](C)O)C(=O)N[C@@H](CCC(=O)O)C(=O)N[C@@H](CCC(=O)O)C(=O)N[C@H](C(=O)N[C@@H](CC(=O)O)C(=O)O)C(C)C` [EEVD] (H-GPTIEEVD-OH), for which the results for the Kd (in [1]; on full-length CHIP-G132N) were 6.5 nM and 9.2 nM, respectively.

Regarding “T636D phosphomimetic: HSP70 T636D phosphomimetic variant”, the turnover entry in the series with proteasome was “accelerated proteasome-dependent turnover”.

With “HSP70 C-terminal tail (from UniProt P0DMV8) pT636 pEEVD peptide”, the fold change result in the series with CHIP is on record as “weaker”.

Take B1: the Kd is 42 µM in series [2] and 7 nM in series [3].

Turning to B2, the values for the Kd (in series [4]; in the series with G132N CHIP-TPR) were 5230 nM and 1250 nM, respectively.

Consider B3, for which the Kd in [4] stood at 592 nM; with G132N CHIP-TPR, 597 nM.

B4: the HSP70 ubiquitination activity entry with HSP70 [5] is “retained HSP70 ubiquitination activity”. The “rescue of interaction in co-immunoprecipitation” value with HSP70 [6] is given as “no rescue”. Moreover, the “binding to the non-mimetic HSP70” value in the series on HSP70 [7] is on record as “overall reducing binding”.

B5: the Kd with FITC-Ahx-GSGPTIEEVD came to 28 nM.

As for B6, the Kd in the series with FITC-Ahx-GSGPTIEEVD worked out at 42 nM.

The values above are taken from PMC13090976 (Cell Stress & Chaperones, 2026).
